T1: human CD116 N156A (human, UniProt P15509 23-400)
T1 construct: whole, on cells
T1 sequence (looked up): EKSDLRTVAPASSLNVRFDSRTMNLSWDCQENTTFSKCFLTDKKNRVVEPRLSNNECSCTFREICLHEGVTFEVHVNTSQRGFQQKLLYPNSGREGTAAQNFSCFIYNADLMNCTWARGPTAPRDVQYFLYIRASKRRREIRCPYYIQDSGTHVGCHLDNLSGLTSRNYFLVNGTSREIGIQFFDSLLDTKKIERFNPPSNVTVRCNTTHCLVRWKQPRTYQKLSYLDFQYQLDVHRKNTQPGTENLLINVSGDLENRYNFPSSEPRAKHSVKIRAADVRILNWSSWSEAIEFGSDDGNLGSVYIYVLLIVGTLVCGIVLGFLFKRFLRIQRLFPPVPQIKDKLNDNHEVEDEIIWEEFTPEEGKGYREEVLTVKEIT

T2: human CD116 K158A (human, UniProt P15509 23-400)
T2 construct: whole, on cells
T2 sequence (looked up): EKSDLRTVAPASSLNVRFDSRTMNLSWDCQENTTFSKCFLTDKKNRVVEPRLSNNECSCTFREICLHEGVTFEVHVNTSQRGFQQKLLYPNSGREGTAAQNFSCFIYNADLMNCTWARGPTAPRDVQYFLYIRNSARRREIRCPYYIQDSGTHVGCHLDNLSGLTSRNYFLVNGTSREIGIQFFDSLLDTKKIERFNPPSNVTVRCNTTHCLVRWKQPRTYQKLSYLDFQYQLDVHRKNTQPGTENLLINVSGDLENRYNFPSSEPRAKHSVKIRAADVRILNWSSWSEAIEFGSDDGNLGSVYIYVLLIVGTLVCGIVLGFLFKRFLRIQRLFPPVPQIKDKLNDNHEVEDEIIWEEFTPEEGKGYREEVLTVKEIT

T3: human CD116 D250A (human, UniProt P15509 23-400)
T3 construct: whole, on cells
T3 sequence (looked up): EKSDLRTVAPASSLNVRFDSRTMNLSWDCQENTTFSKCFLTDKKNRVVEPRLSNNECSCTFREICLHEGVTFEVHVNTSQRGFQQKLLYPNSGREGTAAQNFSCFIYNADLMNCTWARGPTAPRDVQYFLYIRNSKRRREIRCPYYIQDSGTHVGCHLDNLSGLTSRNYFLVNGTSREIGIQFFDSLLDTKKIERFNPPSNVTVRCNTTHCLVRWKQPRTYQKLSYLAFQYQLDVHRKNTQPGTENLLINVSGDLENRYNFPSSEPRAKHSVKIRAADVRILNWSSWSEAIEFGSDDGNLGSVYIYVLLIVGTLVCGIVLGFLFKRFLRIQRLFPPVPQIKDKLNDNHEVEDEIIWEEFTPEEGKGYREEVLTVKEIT

T4: human CD116 T187A (human, UniProt P15509 23-400)
T4 construct: whole, on cells
T4 sequence (looked up): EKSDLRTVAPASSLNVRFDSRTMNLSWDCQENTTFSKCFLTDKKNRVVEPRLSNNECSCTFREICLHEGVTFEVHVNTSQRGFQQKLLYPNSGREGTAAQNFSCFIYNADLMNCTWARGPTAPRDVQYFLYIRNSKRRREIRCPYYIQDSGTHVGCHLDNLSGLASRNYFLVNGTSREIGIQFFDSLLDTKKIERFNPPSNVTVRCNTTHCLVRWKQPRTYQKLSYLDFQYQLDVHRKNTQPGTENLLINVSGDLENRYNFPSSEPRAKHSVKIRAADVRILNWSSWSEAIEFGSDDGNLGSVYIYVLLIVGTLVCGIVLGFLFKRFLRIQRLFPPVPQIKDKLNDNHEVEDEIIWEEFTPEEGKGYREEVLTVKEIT

T5: human CD131 R221A (human, UniProt P32927 17-897)
T5 construct: whole, on cells; also called R221 Ala substitution
T5 sequence (looked up): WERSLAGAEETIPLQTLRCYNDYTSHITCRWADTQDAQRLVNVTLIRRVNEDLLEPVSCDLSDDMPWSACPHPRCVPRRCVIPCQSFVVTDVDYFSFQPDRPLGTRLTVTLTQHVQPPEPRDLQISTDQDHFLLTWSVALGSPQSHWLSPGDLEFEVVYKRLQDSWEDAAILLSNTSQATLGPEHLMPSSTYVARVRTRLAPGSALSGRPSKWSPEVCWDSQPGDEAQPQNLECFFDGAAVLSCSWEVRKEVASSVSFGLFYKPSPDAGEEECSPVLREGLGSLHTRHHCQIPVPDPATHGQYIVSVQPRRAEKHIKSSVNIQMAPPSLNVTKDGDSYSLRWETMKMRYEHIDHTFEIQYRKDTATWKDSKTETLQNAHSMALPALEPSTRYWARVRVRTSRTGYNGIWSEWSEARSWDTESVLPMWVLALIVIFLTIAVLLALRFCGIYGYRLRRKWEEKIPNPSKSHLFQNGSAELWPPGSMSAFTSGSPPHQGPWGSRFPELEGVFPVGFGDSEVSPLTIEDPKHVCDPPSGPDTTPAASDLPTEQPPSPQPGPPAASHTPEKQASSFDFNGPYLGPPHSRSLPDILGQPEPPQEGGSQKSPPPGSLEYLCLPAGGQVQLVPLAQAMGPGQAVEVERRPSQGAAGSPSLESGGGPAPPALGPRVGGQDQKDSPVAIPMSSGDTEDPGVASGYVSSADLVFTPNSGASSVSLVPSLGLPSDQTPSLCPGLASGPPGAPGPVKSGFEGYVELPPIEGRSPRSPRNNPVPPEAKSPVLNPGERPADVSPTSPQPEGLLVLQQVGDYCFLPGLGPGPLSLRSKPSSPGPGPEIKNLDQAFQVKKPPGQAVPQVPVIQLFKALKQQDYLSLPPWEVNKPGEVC


Legend:
human CD116 N156A = molecular target: T1, human CD116 N156A; test: flow cytometry, Fab 0.25 µg/mL on HEK-293T cells expressing the mutant
human CD116 K158A = molecular target: T2, human CD116 K158A; test: as above
human CD116 D250A = molecular target: T3, human CD116 D250A; test: as above
human CD116 T187A = molecular target: T4, human CD116 T187A; test: as above
human CD131 R221A = molecular target: T5, human CD131 R221A; test: flow cytometry, Fab on HEK-293T cells expressing the mutant; labels of this column stand one row too low, mutant assigned after shifting them up (text: R221 is an epitope residue)

| Binder | Binding Reactivity (% WT) (human CD116 N156A) | Binding Reactivity (% WT) (human CD116 K158A) | Binding Reactivity (% WT) (human CD116 D250A) | Binding Reactivity (% WT) (human CD116 T187A) | Binding Reactivity (% WT) (human CD131 R221A) |
| --- | --- | --- | --- | --- | --- |
| anti-CD116 antibody 116-408, Fab (Fab, V domains shown) VH: EVQLVQSGAEVKKPGASVKVSCKVSGYTLTDLSMHWVRQAPGKGLEWMGGFDPEDGERIYAQKFQGRVTMTEDTSTDTAYMELSSLRSEDTAVYYCATGLFYYYYGMDVWGQGTMVTVSS VL: not shown | 5.8 % WT | 35.2 % WT | 95.8 % WT | 16.2 % WT | – |
| anti-CD131 antibody 131-B2, Fab (Fab, V domains shown, Fab made from the antibody by an enzyme treatment) VH: QVQLVQSGAEVKEPGASVKISCKASGYTFTNDYMHWVRQAPGQGLEWMGIINPTGGGTSYAQKFRGRVTMTRDTSTSTVYMELSSLRSEDTAVFYCARERYYGSGTYFNIGLWYFDLWGRGTLVTVSS VL: not shown | – | – | – | – | 38 % WT |
